Data reported in patent publication US20150196651A1 (published 2015).
Numbered stars: 1 amine (or outer) side, 2 acyl side, 3 side chain; on linkers, the order of the positions; unused ones are H or OH. Square brackets hold non-standard residues; d marks the D form. Side chains are listed from the residue outwards. Ends that are not written are not given here. * marks the point of attachment. γGlu = O=C(O)[C@H](CCC(=O)[*:2])N[*:1]; Palmitoyl = CCCCCCCCCCCCCCCC(=O)*; Myristoyl = CCCCCCCCCCCCCC(=O)*; Lauroyl = CCCCCCCCCCCC(=O)*; Decanoyl = CCCCCCCCCC(=O)*; Nle = CCCC[C@H](N)C(=O)O; Octanoyl = CCCCCCCC(=O)*; GABA = NCCCC(=O)O

T1: rat PrRP receptor in RC-4B/C cells (rat, UniProt Q64121 1-370)
T1 construct: whole, on cells; endogenous receptor of RC-4B/C cells (ATCC); also called rat receptor; GPR10 receptor expressed in rat hypophyseal cells
T1 sequence (looked up): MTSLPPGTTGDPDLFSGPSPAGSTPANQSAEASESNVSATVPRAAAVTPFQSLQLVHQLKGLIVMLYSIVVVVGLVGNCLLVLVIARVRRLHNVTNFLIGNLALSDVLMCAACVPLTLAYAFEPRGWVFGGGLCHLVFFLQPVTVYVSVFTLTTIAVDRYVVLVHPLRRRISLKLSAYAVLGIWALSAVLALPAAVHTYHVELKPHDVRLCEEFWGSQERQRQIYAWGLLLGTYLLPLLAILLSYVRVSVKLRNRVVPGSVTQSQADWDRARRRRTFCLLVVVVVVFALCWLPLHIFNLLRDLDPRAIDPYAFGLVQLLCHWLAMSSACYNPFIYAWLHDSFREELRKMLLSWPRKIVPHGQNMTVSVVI

T2: human PrRP receptor GPR10 (human, UniProt P49683 1-370)
T2 construct: whole, on cells; also called GPR10 human receptor transfected in CHO cells; human GPR10 receptor
T2 sequence (looked up): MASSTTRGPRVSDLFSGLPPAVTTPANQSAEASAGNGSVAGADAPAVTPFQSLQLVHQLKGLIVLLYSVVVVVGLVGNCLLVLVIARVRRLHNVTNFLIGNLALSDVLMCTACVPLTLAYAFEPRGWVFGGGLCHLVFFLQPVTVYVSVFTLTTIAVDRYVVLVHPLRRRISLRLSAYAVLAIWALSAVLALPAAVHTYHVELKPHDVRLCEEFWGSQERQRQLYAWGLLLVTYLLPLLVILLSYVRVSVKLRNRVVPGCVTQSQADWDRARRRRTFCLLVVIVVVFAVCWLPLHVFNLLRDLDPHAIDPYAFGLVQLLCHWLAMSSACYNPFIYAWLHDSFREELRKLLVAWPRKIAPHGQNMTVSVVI

B1: analog no. 40 (peptide)
peptide: Decanoyl-TPDINPAWYASRGIRPVGRF-NH2
SMILES: CCCCCCCCCC(=O)N[C@H](C(=O)N1CCC[C@H]1C(=O)N[C@@H](CC(=O)O)C(=O)N[C@H](C(=O)N[C@@H](CC(N)=O)C(=O)N1CCC[C@H]1C(=O)N[C@@H](C)C(=O)N[C@@H](Cc1c[nH]c2ccccc12)C(=O)N[C@@H](Cc1ccc(O)cc1)C(=O)N[C@@H](C)C(=O)N[C@@H](CO)C(=O)N[C@@H](CCCNC(=N)N)C(=O)NCC(=O)N[C@H](C(=O)N[C@@H](CCCNC(=N)N)C(=O)N1CCC[C@H]1C(=O)N[C@H](C(=O)NCC(=O)N[C@@H](CCCNC(=N)N)C(=O)N[C@@H](Cc1ccccc1)C(N)=O)C(C)C)[C@@H](C)CC)[C@@H](C)CC)[C@@H](C)O
B2: analog no. 37 (peptide)
peptide: QHSMETRTPDINPAWYTGRGIRPVGRF-NH2
notes: shortened PrRP31 analog; also called 37 short
B3: analog no. 56 (peptide)
peptide: SETHEHSMEIK([γGlu-Palmitoyl])TPDINPAWYASRGIRPVGRF-NH2
modifications: N-terminus assumed
SMILES: CCCCCCCCCCCCCCCC(=O)N[C@@H](CCC(=O)NCCCC[C@H](NC(=O)[C@@H](NC(=O)[C@H](CCC(=O)O)NC(=O)[C@H](CCSC)NC(=O)[C@H](CO)NC(=O)[C@H](Cc1c[nH]cn1)NC(=O)[C@H](CCC(=O)O)NC(=O)[C@H](Cc1c[nH]cn1)NC(=O)[C@@H](NC(=O)[C@H](CCC(=O)O)NC(=O)[C@@H](N)CO)[C@@H](C)O)[C@@H](C)CC)C(=O)N[C@H](C(=O)N1CCC[C@H]1C(=O)N[C@@H](CC(=O)O)C(=O)N[C@H](C(=O)N[C@@H](CC(N)=O)C(=O)N1CCC[C@H]1C(=O)N[C@@H](C)C(=O)N[C@@H](Cc1c[nH]c2ccccc12)C(=O)N[C@@H](Cc1ccc(O)cc1)C(=O)N[C@@H](C)C(=O)N[C@@H](CO)C(=O)N[C@@H](CCCNC(=N)N)C(=O)NCC(=O)N[C@H](C(=O)N[C@@H](CCCNC(=N)N)C(=O)N1CCC[C@H]1C(=O)N[C@H](C(=O)NCC(=O)N[C@@H](CCCNC(=N)N)C(=O)N[C@@H](Cc1ccccc1)C(N)=O)C(C)C)[C@@H](C)CC)[C@@H](C)CC)[C@@H](C)O)C(=O)O
B4: analog no. 41 (peptide)
peptide: Lauroyl-TPDINPAWYASRGIRPVGRF-NH2
SMILES: CCCCCCCCCCCC(=O)N[C@H](C(=O)N1CCC[C@H]1C(=O)N[C@@H](CC(=O)O)C(=O)N[C@H](C(=O)N[C@@H](CC(N)=O)C(=O)N1CCC[C@H]1C(=O)N[C@@H](C)C(=O)N[C@@H](Cc1c[nH]c2ccccc12)C(=O)N[C@@H](Cc1ccc(O)cc1)C(=O)N[C@@H](C)C(=O)N[C@@H](CO)C(=O)N[C@@H](CCCNC(=N)N)C(=O)NCC(=O)N[C@H](C(=O)N[C@@H](CCCNC(=N)N)C(=O)N1CCC[C@H]1C(=O)N[C@H](C(=O)NCC(=O)N[C@@H](CCCNC(=N)N)C(=O)N[C@@H](Cc1ccccc1)C(N)=O)C(C)C)[C@@H](C)CC)[C@@H](C)CC)[C@@H](C)O
B5: analog no. 38 (peptide)
peptide: Myristoyl-QHSMETRTPDINPAWYTGRGIRPVGRF-NH2
SMILES: CCCCCCCCCCCCCC(=O)N[C@@H](CCC(N)=O)C(=O)N[C@@H](Cc1c[nH]cn1)C(=O)N[C@@H](CO)C(=O)N[C@@H](CCSC)C(=O)N[C@@H](CCC(=O)O)C(=O)N[C@H](C(=O)N[C@@H](CCCNC(=N)N)C(=O)N[C@H](C(=O)N1CCC[C@H]1C(=O)N[C@@H](CC(=O)O)C(=O)N[C@H](C(=O)N[C@@H](CC(N)=O)C(=O)N1CCC[C@H]1C(=O)N[C@@H](C)C(=O)N[C@@H](Cc1c[nH]c2ccccc12)C(=O)N[C@@H](Cc1ccc(O)cc1)C(=O)N[C@H](C(=O)NCC(=O)N[C@@H](CCCNC(=N)N)C(=O)NCC(=O)N[C@H](C(=O)N[C@@H](CCCNC(=N)N)C(=O)N1CCC[C@H]1C(=O)N[C@H](C(=O)NCC(=O)N[C@@H](CCCNC(=N)N)C(=O)N[C@@H](Cc1ccccc1)C(N)=O)C(C)C)[C@@H](C)CC)[C@@H](C)O)[C@@H](C)CC)[C@@H](C)O)[C@@H](C)O
notes: lipidized shortened PrRP31 analog; also called 38 short
B6: analog no. 36 (peptide)
peptide: Myristoyl-[Nle]ETRTPDINPAWYTGRGIRPVGRF-NH2
SMILES: CCCCCCCCCCCCCC(=O)N[C@@H](CCCC)C(=O)N[C@@H](CCC(=O)O)C(=O)N[C@H](C(=O)N[C@@H](CCCNC(=N)N)C(=O)N[C@H](C(=O)N1CCC[C@H]1C(=O)N[C@@H](CC(=O)O)C(=O)N[C@H](C(=O)N[C@@H](CC(N)=O)C(=O)N1CCC[C@H]1C(=O)N[C@@H](C)C(=O)N[C@@H](Cc1c[nH]c2ccccc12)C(=O)N[C@@H](Cc1ccc(O)cc1)C(=O)N[C@H](C(=O)NCC(=O)N[C@@H](CCCNC(=N)N)C(=O)NCC(=O)N[C@H](C(=O)N[C@@H](CCCNC(=N)N)C(=O)N1CCC[C@H]1C(=O)N[C@H](C(=O)NCC(=O)N[C@@H](CCCNC(=N)N)C(=O)N[C@@H](Cc1ccccc1)C(N)=O)C(C)C)[C@@H](C)CC)[C@@H](C)O)[C@@H](C)CC)[C@@H](C)O)[C@@H](C)O
notes: lipidized shortened PrRP31 analog; also called 36 short
B7: analog no. 39 (peptide)
peptide: Octanoyl-TPDINPAWYASRGIRPVGRF-NH2
SMILES: CCCCCCCC(=O)N[C@H](C(=O)N1CCC[C@H]1C(=O)N[C@@H](CC(=O)O)C(=O)N[C@H](C(=O)N[C@@H](CC(N)=O)C(=O)N1CCC[C@H]1C(=O)N[C@@H](C)C(=O)N[C@@H](Cc1c[nH]c2ccccc12)C(=O)N[C@@H](Cc1ccc(O)cc1)C(=O)N[C@@H](C)C(=O)N[C@@H](CO)C(=O)N[C@@H](CCCNC(=N)N)C(=O)NCC(=O)N[C@H](C(=O)N[C@@H](CCCNC(=N)N)C(=O)N1CCC[C@H]1C(=O)N[C@H](C(=O)NCC(=O)N[C@@H](CCCNC(=N)N)C(=O)N[C@@H](Cc1ccccc1)C(N)=O)C(C)C)[C@@H](C)CC)[C@@H](C)CC)[C@@H](C)O
B8: analog no. 35 (peptide)
peptide: [Nle]ETRTPDINPAWYTGRGIRPVGRF-NH2
modifications: N-terminus assumed
SMILES: CCCC[C@H](N)C(=O)N[C@@H](CCC(=O)O)C(=O)N[C@H](C(=O)N[C@@H](CCCNC(=N)N)C(=O)N[C@H](C(=O)N1CCC[C@H]1C(=O)N[C@@H](CC(=O)O)C(=O)N[C@H](C(=O)N[C@@H](CC(N)=O)C(=O)N1CCC[C@H]1C(=O)N[C@@H](C)C(=O)N[C@@H](Cc1c[nH]c2ccccc12)C(=O)N[C@@H](Cc1ccc(O)cc1)C(=O)N[C@H](C(=O)NCC(=O)N[C@@H](CCCNC(=N)N)C(=O)NCC(=O)N[C@H](C(=O)N[C@@H](CCCNC(=N)N)C(=O)N1CCC[C@H]1C(=O)N[C@H](C(=O)NCC(=O)N[C@@H](CCCNC(=N)N)C(=O)N[C@@H](Cc1ccccc1)C(N)=O)C(C)C)[C@@H](C)CC)[C@@H](C)O)[C@@H](C)CC)[C@@H](C)O)[C@@H](C)O
notes: shortened PrRP31 analog; also called 35 short

Experiments:
[1] = target: T1, rat PrRP receptor in RC-4B/C cells; experiment: competition with 125I-rat PrRP31, RC-4B/C cells
Method in brief: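 Incubation 60 min at room temperature; cells solubilized in 0.1 mol/l NaOH and bound radioactivity γ-counted. Run in duplicate, repeated at least three times.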

[2] = target: T2, human PrRP receptor GPR10; experiment: competition with 125I-human PrRP31, CHO cells with human GPR10

Binder	% of PrRP31 [1]	Ki [1]	% of PrRP31 [2]	Ki [2]
B1	1200%	0.41 nM	129%	3.02 nM
Palmitoyl-SRTHRHSMEIRTPDINPAWYASRGIRPVGRF-NH2 (also called analog no; 43; compound 43) [palm-PrRP31 (analog 43)]	519%	0.95 nM	90%	
B2	189%	2.61 nM	66%	5.92 nM
SRTHRHSMEIK([GABA-Palmitoyl])TPDINPAWYASRGIRPVGRF-NH2 [analog no. 53]	190%	1.26 nM	42.5%	9.19 nM
B3	57%	4.23 nM	57%	5.66 nM
SETHRHSMEIK([γGlu-Palmitoyl])TPDINPAWYASRGIRPVGRF-NH2 [analog no. 55]	236%		83%	4.72 nM
B4	822%	0.6 nM	161%	2.41 nM
B5	1330%	0.37 nM	56%	6.93 nM
B6	1100%	0.45 nM	71%	5.48 nM
B7	530%	0.93 nM	201%	1.94 nM
B8	168%	2.94 nM	113%	3.44 nM
